{"source": "the supplement of paper PMC10899765", "data": [{"test_system": "MCF10A", "assay": "percent viability (nuclei count relative to siNT); higher = more viable cells", "settings": "20 nM; 72 h", "description": "(§1)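 After 72 h, cells were fixed and stained with Hoechst and anti-fibrillarin, and nucleoli per nucleus were counted with CellProfiler. Values are plate-adjusted percent effect for the one-nucleolus and 5+ nucleoli phenotypes, normalised to siNT (0%) and to the positive controls siNOL11 or siKIF11 (100%), as the mean of biological triplicates. Percent viability is the nuclei count relative to siNT.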", "units": {"percent viability": "%"}, "values": [{"sequence": "CAAAAACCGGCAAUUACUUUUG [hsa-miR-548ac]", "percent viability": 72.6}, {"sequence": "GAUCCCUUUAUCUGUCCUCUAG [hsa-miR-6866-3p]", "percent viability": 112}, {"sequence": "AGGGGUGCUAUCUGUGAUUGA [hsa-miR-342-5p]", "percent viability": 10.5}, {"sequence": "AAAGGUAAUUGUGGUUUCUGC [hsa-miR-548ag]", "percent viability": 75.7}, {"sequence": "UCUGUGCCCCUACUUCCCAG [hsa-miR-6889-3p]", "percent viability": 63}, {"sequence": "UAAGGUGCAUCUAGUGCAGAUAG [hsa-miR-18a-5p]", "percent viability": 49.1}, {"sequence": "CACCCAGAUCUGCGGCCUAAU [hsa-miR-1295b-5p]", "percent viability": 29.9}, {"sequence": "AAAGUGCUUCCUUUUAGAGGGU [hsa-miR-520c-3p]", "percent viability": 74.6}, {"sequence": "UGGUGGGCCGCAGAACAUGUGC [hsa-miR-654-5p]", "percent viability": 31.2}, {"sequence": "CUGCCAUGUCUAAGAAGAAAAC [hsa-miR-4659a-5p]", "percent viability": 68.5}, {"sequence": "UGAUUGUAGCCUUUUGGAGUAGA [hsa-miR-508-3p]", "percent viability": 54.1}, {"sequence": "GGGUUUGUAGCUUUGCUGGCAUG [hsa-miR-5087]", "percent viability": 26.6}, {"sequence": "CUGGGGUUCUGAGACAGACAGU [hsa-miR-3170]", "percent viability": 9.55}, {"sequence": "UUUGGUCCCCUUCAACCAGCUG [hsa-miR-133a]", "percent viability": 34.5}, {"sequence": "UUGAUCUCGGAAGCUAAGC [hsa-miR-7641]", "percent viability": 82.6}, {"sequence": "AGAGUUGAGUCUGGACGUCCCG [hsa-miR-219-1-3p]", "percent viability": 88.9}, {"sequence": "GGGGGCCGAUACACUGUACGAGA [hsa-miR-128-2-5p]", "percent viability": 91.1}, {"sequence": "CACCAGGCAUUGUGGUCUCC [hsa-miR-1911-3p]", "percent viability": 45}, {"sequence": "UUCUGCCUCUGUCCAGGUCCUU [hsa-miR-5001-3p]", "percent viability": 39.1}, {"sequence": "GGGGGAAGAAAAGGUGGGG [hsa-miR-4271]", "percent viability": 72.2}, {"sequence": "AAGUGCUUCCUUUUAGAGGGUU [hsa-miR-520f]", "percent viability": 46.9}, {"sequence": "CAUUCAACUAGUGAUUGU [hsa-miR-4272]", "percent viability": 170}, {"sequence": "UAGGCCACAGCCACCCAUGUGU [hsa-miR-4717-5p]", "percent viability": 23.3}, {"sequence": "AUCAUGAUGGGCUCCUCGGUGU [hsa-miR-433]", "percent viability": 63.2}, {"sequence": "CUGGGGGGAGGAGACCCUGCU [hsa-miR-7109-5p]", "percent viability": 38.9}, {"sequence": "CAGCCUGACAGGAACAG [hsa-miR-4293]", "percent viability": 33.8}, {"sequence": "AGAGUCGGCGACGCCGCCAGC [hsa-miR-4785]", "percent viability": 49.5}, {"sequence": "UCGUUUGCCUUUUUCUGCUU [hsa-miR-1282]", "percent viability": 84.2}, {"sequence": "AGAUGUCCAGCCACAAUUCUCG [hsa-miR-2964a-5p]", "percent viability": 30.3}, {"sequence": "CAGCACCCUGUGGCUCCCACAG [hsa-miR-6871-3p]", "percent viability": 50.1}, {"sequence": "CAAACCCCUGUCUACCCGCAG [hsa-miR-6771-3p]", "percent viability": 40.5}, {"sequence": "UCCUGCGCGUCCCAGAUGCCC [hsa-miR-1539]", "percent viability": 60.9}, {"sequence": "CCCUGGGCCUCUGCUCCCCAG [hsa-miR-939-3p]", "percent viability": 31.6}, {"sequence": "UGGGUUCCUGGCAUGCUGAUUU [hsa-miR-23b-5p]", "percent viability": 59.2}, {"sequence": "UGUUCUCUUUGCCAAGGACAG [hsa-miR-2117]", "percent viability": 56.1}, {"sequence": "UCUGGUCCUGGACAGGAGGC [hsa-miR-7152-3p]", "percent viability": 41.9}, {"sequence": "UCCCUGUCCUCCAGGAGCUCACG [hsa-miR-339-5p]", "percent viability": 51.6}, {"sequence": "UAAAACUUUAAGUGUGCCUAGG [hsa-miR-5582-3p]", "percent viability": 72.9}, {"sequence": "CUGGACUGAGCCAUGCUACUGG [hsa-miR-1269b]", "percent viability": 60.9}, {"sequence": "UGGCAGUUACUUUUGCACCAG [hsa-miR-548au-3p]", "percent viability": 5.53}, {"sequence": "GAGUGCCUUCUUUUGGAGCGUU [hsa-miR-515-3p]", "percent viability": 50.3}, {"sequence": "ACUUUCCUCACUCCCGUGAAGU [hsa-miR-3124-3p]", "percent viability": 115}, {"sequence": "UAGGGUAGACACUGACAACGUU [hsa-miR-6755-5p]", "percent viability": 19.9}, {"sequence": "CGAAAACAGCAAUUACCUUUGC [hsa-miR-570-3p]", "percent viability": 164}, {"sequence": "UCUAGUGCGGGCGUUCCCG [hsa-miR-6080]", "percent viability": 85.3}, {"sequence": "UCUGGCCAGCUACGUCCCCA [hsa-miR-3190-5p]", "percent viability": 48.9}, {"sequence": "GAAGGCGCUUCCCUUUAGAGCG [hsa-miR-525-3p]", "percent viability": 42.5}, {"sequence": "UGGGUGUAGGCUGGAGCUGAGG [hsa-miR-6772-5p]", "percent viability": 17}, {"sequence": "CAGAGGGAAUACAGAGGGCAAU [hsa-miR-6873-5p]", "percent viability": 36.7}, {"sequence": "UUGAGGGGAGAAUGAGGUGGAGA [hsa-miR-6734-5p]", "percent viability": 35}, {"sequence": "ACAAGGUGUGCAUGCCUGACC [hsa-miR-4761-5p]", "percent viability": 18.1}, {"sequence": "CCUCCUGAUGAUUCUUCUUC [hsa-miR-3653-5p]", "percent viability": 159}, {"sequence": "UAGGUUAUCCGUGUUGCCUUCG [hsa-miR-154-5p]", "percent viability": 32.9}, {"sequence": "CAAAAGUGAUUGUGGUUUUUGC [hsa-miR-548az-5p]", "percent viability": 149}, {"sequence": "ACUCCAGCCCCACAGCCUCAGC [hsa-miR-766-3p]", "percent viability": 39}, {"sequence": "UUCCAUGCCUCCUAGAAGUUCC [hsa-miR-5581-3p]", "percent viability": 57.3}, {"sequence": "UGGGGGUGUGGGGAGAGAGAG [hsa-miR-7110-5p]", "percent viability": 40.9}, {"sequence": "UAAAGUGCUGACAGUGCAGAU [hsa-miR-106b-5p]", "percent viability": 91.2}, {"sequence": "UGCCUCCUUGGUCUCCGGCAG [hsa-miR-6791-3p]", "percent viability": 22.2}]}, {"test_system": "MCF10A", "assay": "5+ nucleoli phenotype percent effect (relative to siNT 0% and siKIF11 100%); higher = more cells with five or more nucleoli", "settings": "20 nM; 72 h", "description": "as §1", "units": {"5+ nucleoli phenotype percent effect": "%"}, "values": [{"sequence": "CAAAAACCGGCAAUUACUUUUG [hsa-miR-548ac]", "5+ nucleoli phenotype percent effect": 8.34}, {"sequence": "GAUCCCUUUAUCUGUCCUCUAG [hsa-miR-6866-3p]", "5+ nucleoli phenotype percent effect": 77.6}, {"sequence": "AGGGGUGCUAUCUGUGAUUGA [hsa-miR-342-5p]", "5+ nucleoli phenotype percent effect": -43.4}, {"sequence": "AAAGGUAAUUGUGGUUUCUGC [hsa-miR-548ag]", "5+ nucleoli phenotype percent effect": 4.63}, {"sequence": "UCUGUGCCCCUACUUCCCAG [hsa-miR-6889-3p]", "5+ nucleoli phenotype percent effect": 16.2}, {"sequence": "UAAGGUGCAUCUAGUGCAGAUAG [hsa-miR-18a-5p]", "5+ nucleoli phenotype percent effect": -34.5}, {"sequence": "CACCCAGAUCUGCGGCCUAAU [hsa-miR-1295b-5p]", "5+ nucleoli phenotype percent effect": -30.7}, {"sequence": "AAAGUGCUUCCUUUUAGAGGGU [hsa-miR-520c-3p]", "5+ nucleoli phenotype percent effect": 44.6}, {"sequence": "UGGUGGGCCGCAGAACAUGUGC [hsa-miR-654-5p]", "5+ nucleoli phenotype percent effect": -8.23}, {"sequence": "CUGCCAUGUCUAAGAAGAAAAC [hsa-miR-4659a-5p]", "5+ nucleoli phenotype percent effect": -0.515}, {"sequence": "UGAUUGUAGCCUUUUGGAGUAGA [hsa-miR-508-3p]", "5+ nucleoli phenotype percent effect": -32}, {"sequence": "GGGUUUGUAGCUUUGCUGGCAUG [hsa-miR-5087]", "5+ nucleoli phenotype percent effect": 6.11}, {"sequence": "CUGGGGUUCUGAGACAGACAGU [hsa-miR-3170]", "5+ nucleoli phenotype percent effect": -46.2}, {"sequence": "UUUGGUCCCCUUCAACCAGCUG [hsa-miR-133a]", "5+ nucleoli phenotype percent effect": -24.8}, {"sequence": "UUGAUCUCGGAAGCUAAGC [hsa-miR-7641]", "5+ nucleoli phenotype percent effect": 6.46}, {"sequence": "AGAGUUGAGUCUGGACGUCCCG [hsa-miR-219-1-3p]", "5+ nucleoli phenotype percent effect": 30.8}, {"sequence": "GGGGGCCGAUACACUGUACGAGA [hsa-miR-128-2-5p]", "5+ nucleoli phenotype percent effect": 34.6}, {"sequence": "CACCAGGCAUUGUGGUCUCC [hsa-miR-1911-3p]", "5+ nucleoli phenotype percent effect": -9.8}, {"sequence": "UUCUGCCUCUGUCCAGGUCCUU [hsa-miR-5001-3p]", "5+ nucleoli phenotype percent effect": -28.1}, {"sequence": "GGGGGAAGAAAAGGUGGGG [hsa-miR-4271]", "5+ nucleoli phenotype percent effect": 20.1}, {"sequence": "AAGUGCUUCCUUUUAGAGGGUU [hsa-miR-520f]", "5+ nucleoli phenotype percent effect": 26.9}, {"sequence": "CAUUCAACUAGUGAUUGU [hsa-miR-4272]", "5+ nucleoli phenotype percent effect": 33.7}, {"sequence": "UAGGCCACAGCCACCCAUGUGU [hsa-miR-4717-5p]", "5+ nucleoli phenotype percent effect": -6.97}, {"sequence": "AUCAUGAUGGGCUCCUCGGUGU [hsa-miR-433]", "5+ nucleoli phenotype percent effect": -11.3}, {"sequence": "CUGGGGGGAGGAGACCCUGCU [hsa-miR-7109-5p]", "5+ nucleoli phenotype percent effect": -2.63}, {"sequence": "CAGCCUGACAGGAACAG [hsa-miR-4293]", "5+ nucleoli phenotype percent effect": 4.42}, {"sequence": "AGAGUCGGCGACGCCGCCAGC [hsa-miR-4785]", "5+ nucleoli phenotype percent effect": -30.3}, {"sequence": "UCGUUUGCCUUUUUCUGCUU [hsa-miR-1282]", "5+ nucleoli phenotype percent effect": 5.62}, {"sequence": "AGAUGUCCAGCCACAAUUCUCG [hsa-miR-2964a-5p]", "5+ nucleoli phenotype percent effect": -43.9}]}]}
